Assay [1] addresses Human DLL3 full-length protein (human). Put plainly: FACS on H1184 cells.
Assay [2] shares this target. As to the kind of experiment: cell-based or functional assay.
Assay [3] addresses Cynomolgus monkey DLL3 full-length protein (cynomolgus monkey). As to the kind of experiment: FACS on cynoDLL3/CHO-s cells.

As a reminder, the EC50 is the concentration at which the effect is half-maximal. In assay [1], BI-764532 (antibody) showed an EC50 of 3.94 nM and an Emax (geometric MFI) of 1620. Besides, in assay [2], the IC50 (nM), cell killing caused by endocytosis of antibody (DT3C, DMS53/DLL3 cells) came out at 3.27 nM and the Imax, cell killing caused by endocytosis of antibody (DT3C, DMS53/DLL3 cells) was 86.5. In assay [3], this substance showed an EC50 of 3.42 nM and an Emax (geometric MFI) of 963.

The values above are taken from EP4674437A1.
